In PMC8746622, “Purification, Characterization, and Structural Studies of a Sulfatase from Pedobacter yulinensis” (Molecules, 2021):

B1: PyuS (Pedobacter yulinensis) (protein)
chain: QGSRKPNIIFIMADDLGWGELGSYGNTFNETPNLDRLSAQGMRFTQAYAAAPVCSPTRASIMTGQYPARVGITDFLPEDEKTDRWLDPTKYVTLNEALSASGYHTGIVGKWHLDTDFKLNKGGPKAHGFNEVIGTESEYIADGDYFFPYSKIASFDKGTANEYLTDRQCAEANAFITRNREKPFFLYLSLYSVHTRLEAPVQLVEKYKQKFDQKYGTGKAEQFFGANNVRHESAQRDNPWLAAMLESIDTGVGGIMKTLRETGLAENTIIVFFSDNGGAGKAGNNAHLRAGKTWLYEGGIREPLIVSWPGKIKGNTVNDNPVTSLDFYPTFLAAAGGKPTGGRLDGHNLMPLLRGGRASGRPLFWHYPSETGKWVNRMSSAVREGNYKLLEFYNNPRLELYDLQNDPSESHNLATDRPAETARLKKLLEDWKKEVNAEAPHLARKEKKKP
notes: signal peptide (native residues 2-24) removed; C-terminal GSHHHHHH tag kept; expressed in E. coli with M. tuberculosis FGE (active-site Cys converted to formylglycine, FGly55); 459 residues, 51,320 Da; SEC monomer

How the values were obtained:
[1] = target: Pedobacter yulinensis sulfatase (PyuS), recombinant, without the putative N-terminal signal peptide, C-terminal His6-tag (Pedobacter yulinensis); assay: SEC; HiLoad 16/600 Superdex 200 pg, 10 mM Tris, 150 mM sodium chloride, pH 8.0, 1.2 mL/min, 4 °C; molecular weights of the two peaks from SEC MW standards; monomer and dimer
[2] = substrate: Cc1cc(=O)oc2cc(OS(=O)(=O)O)ccc12; assay: purified protein; assay type: biochemical, Pedobacter yulinensis; conditions: 25 mM Bis-Tris pH 6.5, 1.0 mM CaCl2, room temperature, SEC monomer

Molecule	percent of soluble protein as homodimer [1] [%]	stoichiometry N [1]	Km [2] [µM]	kcat [2] [s⁻¹]
Pedobacter yulinensis sulfatase (PyuS), recombinant, without the putative N-terminal signal peptide, C-terminal His6-tag (enzyme)	10	2		
B1			1890	0.00983
